The values that follow are results of earlier work, collected in publication PMC12086256.

The series deals with VEGFR1 (Homo sapiens) (UniProt P17948).
Chain of UniProt P17948 (P17948 27-758): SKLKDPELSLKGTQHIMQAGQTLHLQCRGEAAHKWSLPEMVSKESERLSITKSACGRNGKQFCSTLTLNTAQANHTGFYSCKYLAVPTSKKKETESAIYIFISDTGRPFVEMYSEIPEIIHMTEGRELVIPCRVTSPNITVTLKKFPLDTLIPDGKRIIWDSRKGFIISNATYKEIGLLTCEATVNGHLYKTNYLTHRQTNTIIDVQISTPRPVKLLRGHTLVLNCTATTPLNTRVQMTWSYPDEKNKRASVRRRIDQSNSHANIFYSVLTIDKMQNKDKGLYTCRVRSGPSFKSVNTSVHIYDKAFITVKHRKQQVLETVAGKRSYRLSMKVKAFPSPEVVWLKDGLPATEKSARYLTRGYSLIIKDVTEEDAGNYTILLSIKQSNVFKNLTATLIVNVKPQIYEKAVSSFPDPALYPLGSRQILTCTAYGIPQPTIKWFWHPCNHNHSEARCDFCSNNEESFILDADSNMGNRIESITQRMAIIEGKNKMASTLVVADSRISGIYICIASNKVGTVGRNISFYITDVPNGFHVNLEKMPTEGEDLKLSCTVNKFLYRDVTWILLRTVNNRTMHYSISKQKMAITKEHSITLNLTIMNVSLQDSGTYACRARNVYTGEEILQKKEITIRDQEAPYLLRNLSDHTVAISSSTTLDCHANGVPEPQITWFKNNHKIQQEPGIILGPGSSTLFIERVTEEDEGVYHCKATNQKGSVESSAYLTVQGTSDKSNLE

A word on the Kd: it is the equilibrium constant for the complex coming apart. Consider VEGF-B167 (from UniProt P49765), for which the Kd was 2 nM.
